Residue numbers refer to the chain shown, from its start. In names and notes the source's numbering stands. Several values for one entry are separate records, joined by “and”; a condition that tells them apart may be missing. Equal values may be shown once.
B1: G426I: modified GLD: SEQ ID NO: 1 with substitution G426I (protein, listed as Aspergillus terreus)
chain: MLGKLSFLSALSLAVAAPLSNSTSAKYDYIVIGGGTSGLAVANRLSEDPNVNVLILEAGGSVWNNPNVTNVDGYGLAFGSDIDWQYQSVNQPYGGNLSQVLRAGKALGGTSTINGMAYTRAEDVQIDAWETIGNTGWTWKNLFPYYRKSENFTVPTKSQTSLGASYEAGAHGHEGPLDVAFTQIESNNLTTYLNRTFQGMGLPWTEDVNGGKMRGFNLYPSTVNLEEYVREDAARAYYWPYKSRPNLHVLLNTFANRIVWDGEAHDGHITASGVEITSRNGTVRVINAEKEVIVSAGALKSPAILELSGIGNPSVLDKHNIPVKVNLPTVGENLQDQVNSHMDASGNTSISGTKAVSYPDVYDVFGDEAESVAKQIRANLKQYAADTAKANGNIMKAADLERLFEVQYDLIFKGRVPIAEVLNYPISATSVFAEFWALLPFARGSVHIGSSNPAEFPVINPNYFMLDWDAKSYVAVAKYIRRSFESYPLSSIVKESTPGYDVIPRNASEQSWKEWVFDKNYRSNFHPVGTAAMMPREIGGVVDERLNVYGTTNVRVVDASVLPFQVCGHLVSTLYAVAERAADLIKADAGRR
modifications: SIGNAL (1)..(19)
B2: G426S: modified GLD: SEQ ID NO: 1 with substitution G426S (protein, listed as Aspergillus terreus)
chain: B1 chain with I426S
modifications: SIGNAL (1)..(19)
B3: G426V: modified GLD: SEQ ID NO: 1 with substitution G426V (protein, listed as Aspergillus terreus)
chain: B1 chain with I426V
modifications: SIGNAL (1)..(19)
B4: F432T: modified GLD: SEQ ID NO: 1 with substitution F432T (protein, listed as Aspergillus terreus)
chain: B1 chain with I426G, F432T
modifications: SIGNAL (1)..(19)
B5: F432I: modified GLD: SEQ ID NO: 1 with substitution F432I (protein, listed as Aspergillus terreus)
chain: B1 chain with I426G, F432I
modifications: SIGNAL (1)..(19)
B6: G426N: modified GLD: SEQ ID NO: 1 with substitution G426N (protein, listed as Aspergillus terreus)
chain: B1 chain with I426N
modifications: SIGNAL (1)..(19)
B7: G426Y: modified GLD: SEQ ID NO: 1 with substitution G426Y (protein, listed as Aspergillus terreus)
chain: B1 chain with I426Y
modifications: SIGNAL (1)..(19)
B8: G426R: modified GLD: SEQ ID NO: 1 with substitution G426R (protein, listed as Aspergillus terreus)
chain: B1 chain with I426R
modifications: SIGNAL (1)..(19)
B9: G426T: modified GLD: SEQ ID NO: 1 with substitution G426T (protein, listed as Aspergillus terreus)
chain: B1 chain with I426T
modifications: SIGNAL (1)..(19)
B10: F432V: modified GLD: SEQ ID NO: 1 with substitution F432V (protein, listed as Aspergillus terreus)
chain: B1 chain with I426G, F432V
modifications: SIGNAL (1)..(19)
B11: F432Q: modified GLD: SEQ ID NO: 1 with substitution F432Q (protein, listed as Aspergillus terreus)
chain: B1 chain with I426G, F432Q
modifications: SIGNAL (1)..(19)
B12: F432M: modified GLD: SEQ ID NO: 1 with substitution F432M (protein, listed as Aspergillus terreus)
chain: B1 chain with I426G, F432M
modifications: SIGNAL (1)..(19)
B13: F432K: modified GLD: SEQ ID NO: 1 with substitution F432K (protein, listed as Aspergillus terreus)
chain: B1 chain with I426G, F432K
modifications: SIGNAL (1)..(19)
B14: V431F: modified GLD: SEQ ID NO: 1 with substitution V431F (protein, listed as Aspergillus terreus)
chain: B1 chain with I426G, V431F
modifications: SIGNAL (1)..(19)
B15: G426K: modified GLD: SEQ ID NO: 1 with substitution G426K (protein, listed as Aspergillus terreus)
chain: B1 chain with I426K
modifications: SIGNAL (1)..(19)
B16: G426M: modified GLD: SEQ ID NO: 1 with substitution G426M (protein, listed as Aspergillus terreus)
chain: B1 chain with I426M
modifications: SIGNAL (1)..(19)
B17: G426P: modified GLD: SEQ ID NO: 1 with substitution G426P (protein, listed as Aspergillus terreus)
chain: B1 chain with I426P
modifications: SIGNAL (1)..(19)
B18: G426W: modified GLD: SEQ ID NO: 1 with substitution G426W (protein, listed as Aspergillus terreus)
chain: B1 chain with I426W
modifications: SIGNAL (1)..(19)
B19: G426L: modified GLD: SEQ ID NO: 1 with substitution G426L (protein, listed as Aspergillus terreus)
chain: B1 chain with I426L
modifications: SIGNAL (1)..(19)

What was measured:
[1] = Relative enzymatic activity of GLD (DCIP/1-m-PMS, plate reader, yeast culture supernatant) with 1,10-phenanthroline present; assay type: biochemical; settings: site-specific mutants, inhibitor final concentration 1 mM
Summary of the method: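 Inhibitor at 1 mM final substitutes for the methanol in the reagent, and the sample rate is expressed as % of the inhibitor-free blank. Rates come from ΔA600/min of DCIP with glucose and 1-m-PMS at pH 7.0, using supernatants of YPD-grown yeast clones (24 h, 30° C.).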

[2] = Relative enzymatic activity of GLD (DCIP/1-m-PMS, plate reader, yeast culture supernatant) with proflavin hydrochloride present; assay type: biochemical; settings: site-specific mutants, inhibitor final concentration 1 mM
Summary of the method: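 Culture supernatant diluted and mixed with reagent of phosphate buffer pH 7.0, 1.0 M D-glucose, 3 mM DCIP, 3 mM 1-m-PMS and methanol (0.1:1:0.14:0.2:0.06). DCIP absorbance decrease at 600 nm followed; proflavin hydrochloride in methanol replaced methanol at 1 mM final. Activity expressed as % of inhibitor-free blank.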

Row | Molecule | Relative Activity [%] 1,10-Phenanthroline [1] | Relative Activity [%] Proflavin hydrochloride [2]
1 | B1 | 93.2% | 63.4%
2 | B2 | 80.9% | 58.0%
3 | B3 | 90.3% | 59.9%
4 | B4 | 89.9% | 80.2%
5 | B5 | 91.8% | 80.9%
6 | B6 | 69.6% | 51.9%
7 | B7 | 61.6% | 47.5%
8 | B8 | 71.5% | 43.0%
9 | B9 | 88.5% | 58.4%
10 | B10 | 80.2% | 70.3%
11 | B11 | 59.3% | 67.3%
12 | B12 | 62.5% and 74.2% | 71.1% and 66.1%
13 | B13 | 92.1% | 79.3%
14 | B14 | 82.1% | 57.7%
15 | B15 | 94.3% | 65.4%
16 | B16 | 78.3% | 58.8%
17 | B17 | 56.1% | 33.3%
18 | B18 | 61.0% | 47.8%
19 | B19 | 91.2% | 63.7%
